Laboratory results taken from the supplement of paper PMC10126150.
± gives the standard deviation of the averaged measurements.

Test system: ATP
Assay: switch fluorescence ratio, 500 uM ATP over buffer (Cy3 cluster intensity, sum of 5 cycles each) (fold (ratio)); higher = stronger signal-on switching upon ATP binding; sequences stand for … in TCGTCGGCAGCGTCAGATGTGTATAAGAGACAGTTTTTTTTTTTTTTTTTTTTTTTTT…TC
Conditions: aptamer strand: ATP DNA aptamer (quencher-CACCTGGGGGAGTATTGCGGAGGAAGG + anchor), 100 nM annealed; ATP concentration: 500 uM
Outline: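 Values give the fluorescence ratio for each switch-domain sequence, averaged from per-cluster ratios of summed target-cycle to summed buffer-cycle Cy3 intensity. The Cy3-labelled switching-strand clusters sat on a modified Illumina MiSeq flow-cell, were annealed to 100 nM quencher-labelled ATP aptamer, and were imaged in selection buffer, then after 15 min with 500 uM ATP at 22 °C. Five cycles ran with NaOH stripping and re-annealing between them, and clusters outside 100-1000 RFU were excluded.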
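Also: ATP exposure 15 min at 22 °C before imaging.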

| Sequence | switch fluorescence ratio |
| --- | --- |
| TTTAATTTA | 1.01 ± 0.012 |
| TTTGTGTCAA | 1.01 ± 0.04 |
| GTGATTGTTT | 1.009 ± 0.0091 |
| GACGGGTGAG | 0.9917 ± 0.0087 |
| AGGGGTGATG | 0.9827 ± 0.001 |
| TGTCACAAGC | 1.02 ± 0.013 |
| GTTGAACAGT | 1.01 ± 0.065 |
| TTTTCTAGGT | 0.982 ± 0.021 |
| CAGTGCATC | 0.972 ± 0.053 |
| GGATGCCTTT | 0.977 ± 0.026 |
| CGAATATTTG | 0.996 ± 0.026 |
| TTGGGGATGA | 1.01 ± 0.016 |
| TTAGCTTCTT | 1.07 ± 0.066 |
| GGGGCTGGCG | 1.03 ± 0.11 |
| GAGGGACGGG | 1.02 ± 0.025 |
| CGATAGTTAG | 0.986 ± 0.044 |
| CGCGAGGACT | 1.27 ± 0.11 |
| ATGAGGCATT | 1.04 ± 0.016 |
| AAAGAGTCCT | 1.01 ± 0.029 |
| CGGATGGTCA | 1.013 ± 0.0099 |
| AAAGCGTGGA | 1 ± 0.011 |
| ATTTCATGTG | 0.9853 ± 0.0035 |
| GGCAGCTGGT | 1.01 ± 0.03 |

| Sequence | switch fluorescence ratio |
| --- | --- |
| GAAAAAAGTG | 0.994 ± 0.047 |
| TTTACGTCCA | 1.1 ± 0.047 |
| ACCTGCGGGG | 1.01 ± 0.023 |
| TCCGATGTTT | 1.76 ± 0.27 |
| TATCTAAATC | 0.9967 ± 0.0063 |
| GAGGAGGTTT | 0.968 ± 0.017 |
| TTTTTAGAAT | 0.993 ± 0.027 |
| CAAATAGTCG | 1.01 ± 0.027 |
| TCGTTCTTTT | 0.966 ± 0.019 |
| ATGGACGTGT | 0.9935 ± 0.0033 |
| TGCGCTACGG | 1.08 ± 0.039 |
| TCAACCGGGG | 1.079 ± 0.0021 |
| GAGAATCGGT | 1.03 ± 0.078 |
| TTGTTATGGC | 0.9795 ± 0.0059 |
| TAATACCAAG | 1 ± 0.029 |
| TTTTTGTAGA | 1.01 ± 0.022 |
| CTACGAGCTG | 1.06 ± 0.021 |
| CAATCATGTT | 1.02 ± 0.027 |
| TAATCACGAA | 1.036 ± 0.0039 |
| AGGATATGGA | 0.997 ± 0.022 |
| CAAAAAGTTT | 1.05 ± 0.097 |
| CTTGTGCTTG | 1.0058 ± 0.00065 |
| GGCAAAGGTA | 0.968 ± 0.014 |

| Sequence | switch fluorescence ratio |
| --- | --- |
| AAAATTATAT | 1.02 ± 0.035 |
| AGCTTGGGTC | 0.994 ± 0.019 |
| CATTCGGGGG | 0.997 ± 0.016 |
| TTCCACGTTT | 1.11 ± 0.12 |
| GGTTGGATGG | 0.9995 ± 0.0007 |
| TTCGGAGAAT | 1.16 ± 0.23 |
| GGGGTGGGGA | 1 ± 0.036 |
| TTGAATTAAC | 1.03 ± 0.06 |
| GAAGGGATGG | 1.08 ± 0.15 |
| TTAGGCAGGT | 0.994 ± 0.048 |
| GGATGCTTTC | 1.02 ± 0.026 |
| CGTGCGGTGG | 1.01 ± 0.043 |
| TTGATCAGGG | 0.989 ± 0.042 |
| TGGGGGGCAT | 1.07 ± 0.19 |
| AAATTGGCAG | 1.06 ± 0.16 |
| TATGTTTTTT | 0.997 ± 0.031 |
| TTTGGCGCAC | 1.06 ± 0.015 |
| TTGTAGAATG | 0.9821 ± 0.0066 |
| AACATAGTCA | 1.006 ± 0.0024 |
| TGGTTGTACG | 1.01 ± 0.027 |
| GAGTTTGAAT | 0.969 ± 0.021 |
| TGCGGCGGGT | 1.04 ± 0.012 |
| GGGAAAGCGC | 1.03 ± 0.064 |

| Sequence | switch fluorescence ratio |
| --- | --- |
| GGCGTAGGGG | 1.02 ± 0.038 |
| ACGGTGACGG | 1.02 ± 0.04 |
| GATGTTTAAT | 0.991 ± 0.029 |
| TTTTTCATTT | 1.01 ± 0.023 |
| GAAAAAGCGT | 1.07 ± 0.03 |
| TGTATTTAAG | 0.97 ± 0.035 |
| TTTGAAAGCT | 1.164 ± 0.0067 |
| TTTCTTCAGC | 1.21 ± 0.19 |
| TTGCGTTTTG | 0.991 ± 0.057 |
| CCAAGTAGGC | 1.13 ± 0.022 |
| TGGGCCTAAG | 0.968 ± 0.061 |
| AAAGAGTTGA | 1 ± 0.022 |
| TAAGGGGGAA | 1.03 ± 0.06 |
| GCATGACTGT | 1.01 ± 0.024 |
| TTTTTTATTA | 0.986 ± 0.023 |
| CTGGTGATTT | 1.05 ± 0.053 |
| TTGAAGAAAC | 1.04 ± 0.018 |
| TTGTTATGCG | 0.995 ± 0.012 |
| AGGTTGAGGT | 1.08 ± 0.12 |
| GATGGAGTGT | 0.978 ± 0.018 |
| CGGTGGAGGG | 0.9849 ± 0.0091 |
| TCTTTTTATA | 1.04 ± 0.017 |
| TTGTGGGTTT | 1.05 ± 0.2 |

| Sequence | switch fluorescence ratio |
| --- | --- |
| TAAGCTTTGT | 0.9902 ± 0.0025 |
| TCAAGCTCAT | 0.974 ± 0.023 |
| AAGTCTGTTT | 1.03 ± 0.028 |
| AGGAGGGCAG | 1.013 ± 0.0059 |
| ATGGGAAACG | 0.995 ± 0.014 |
| CAGCATATAT | 2.32 ± 0.053 |
| TGAAAGCCCG | 1.048 ± 0.0056 |
| GTTAATTGGG | 0.953 ± 0.037 |
| CTGTTAAAGG | 0.999 ± 0.013 |
| TGACGAGTAA | 1.5 ± 0.28 |
| TTGAATTTTC | 1.02 ± 0.061 |
| AATGTATTTT | 1.01 ± 0.029 |
| GGGGTGATCC | 1.01 ± 0.012 |
| ATTTGTGTTA | 1.01 ± 0.013 |
| GGCGCGGGGA | 1.02 ± 0.045 |
| AGGAAGGGGA | 0.9683 ± 0.0089 |
| CGGAACAGCA | 1.08 ± 0.051 |
| AGGGGCACGA | 1.03 ± 0.024 |
| AGTATGGTGT | 0.937 ± 0.044 |
| TTACTTTGCT | 1.003 ± 0.0061 |
| ACAGCTAAAA | 1.02 ± 0.016 |
| TGATATAGGA | 1.01 ± 0.064 |
| ATCGTGTGTC | 0.987 ± 0.071 |

| Sequence | switch fluorescence ratio |
| --- | --- |
| TTGGGAAATG | 0.985 ± 0.042 |
| TTTGCCGATG | 0.985 ± 0.013 |
| AACAGATGGA | 1.16 ± 0.3 |
| ATTGGGAGGT | 0.972 ± 0.033 |
| TTAGGAAA | 0.984 ± 0.044 |
| TAGGTAAATC | 1.01 ± 0.024 |
| TATTATATTT | 1 ± 0.0046 |
| CCTGTTGGGA | 1.01 ± 0.037 |
| GCTCTATAAT | 1.03 ± 0.0044 |
| GGCCGGATGG | 0.991 ± 0.011 |
| TAAAAATACA | 1.1 ± 0.13 |
| GGTAGGTAGG | 1.01 ± 0.038 |
| CCGGGGCCTG | 1.05 ± 0.095 |
| GACAGCAGGG | 1.03 ± 0.025 |
| GAGGTTGTCA | 0.958 ± 0.038 |
| CTTATGAGGG | 0.99 ± 0.025 |
| TTTTCCAGCC | 1.04 ± 0.036 |
| CATTAGGCTG | 1.02 ± 0.015 |
| GGGGGTCTGA | 1 ± 0.024 |
| AAAGATAATT | 0.982 ± 0.018 |
| TTTTATAAAA | 1.03 ± 0.019 |
| CAACTGCACG | 1.22 ± 0.079 |
| ACAGACTTTG | 1.01 ± 0.062 |

| Sequence | switch fluorescence ratio |
| --- | --- |
| CCAATTTTTA | 1.01 ± 0.03 |
| TCGTAGGTGG | 1.02 ± 0.063 |
| AAATGGAGTA | 1.01 ± 0.007 |
| GAGGGTTGCT | 1.01 ± 0.036 |
| GAATGTGGGG | 0.982 ± 0.019 |
| TCGGATAAGA | 0.995 ± 0.048 |
| GAGGGGAGGC | 1.29 ± 0.39 |
| GACTGGTTGC | 1 ± 0.053 |
| GTTTAAAGTC | 0.989 ± 0.059 |
| CTAAATATGA | 0.98 ± 0.035 |
| GATTTAAGTT | 0.9988 ± 0.0098 |
| GGCTCATTGG | 0.969 ± 0.025 |
| AGGTCCTGTG | 0.998 ± 0.016 |
| TTATATTTAT | 1.03 ± 0.069 |
| AGGTCTAGTT | 0.9995 ± 0.0089 |
| TGTTTGTATT | 0.955 ± 0.03 |
| TTTTAAGGCT | 0.982 ± 0.024 |
| TTTCTCGTAC | 1.11 ± 0.012 |
| TCACATGGGA | 0.976 ± 0.011 |
